The source of these data is publication PMC12274814.

The data set deals with nsP13 helicase (SARS-CoV-2) (UniProt P0DTD1).

In turn, ssDNA-F (25-nt) registered a K half of 53 nM.
